Data from publication PMC7347597, “INTS10–INTS13–INTS14 form a functional module of Integrator that binds nucleic acids and the cleavage module” (Nature Communications, 2020).
One block for each binder: values may come before it.

Experiments:
[1] = molecular target: T1, INTS13-INTS14 heterodimer (Homo sapiens, UniProt Q9NVM9;Q96SY0 1-706;1-518); experiment: EMSA; FP: 10 nM RNA, 10 mM HEPES pH 7.5, 5% glycerol, 2 mM MgCl2, 50 mM NaCl or none added, temperature not stated; EMSA: 50 mM HEPES pH 7.5, 200 mM NaCl, 2 mM MgCl2, on ice, 2 uM RNA or 1 uM DNA; details: protein: recombinant; tags: INTS13 N-terminal 2xStrep, HRV 3C cleavable (removed if needed); copies: 1;1; hairpin
[2] = molecular target: T2, INTS10-INTS13-INTS14 heterotrimer (Homo sapiens, UniProt Q9NVR2;Q9NVM9;Q96SY0 1-710;1-706;1-518); experiment: as above; details: protein: recombinant; tags: INTS13 N-terminal 2xStrep, HRV 3C cleavable (removed if needed); copies: 1;1;1; hairpin
[3] = molecular target: T1, INTS13-INTS14 heterodimer; experiment: fluorescence polarization; FP: 10 nM RNA, 10 mM HEPES pH 7.5, 5% glycerol, 2 mM MgCl2, 50 mM NaCl or none added, temperature not stated; EMSA: 50 mM HEPES pH 7.5, 200 mM NaCl, 2 mM MgCl2, on ice, 2 uM RNA or 1 uM DNA; details: protein: recombinant; tags: INTS13 N-terminal 2xStrep, HRV 3C cleavable (removed if needed); copies: 1;1; label: 5'-6-FAM; single strand
[4] = molecular target: T2, INTS10-INTS13-INTS14 heterotrimer; experiment: as above; details: protein: recombinant; tags: INTS13 N-terminal 2xStrep, HRV 3C cleavable (removed if needed); copies: 1;1;1; label: 5'-6-FAM; single strand
[5] = molecular target: T3, INT cleavage module (His10-INTS4–INTS9–(2S)-INTS11) (human, UniProt Q96HW7 1-963; Q9NV88 1-658; Q5TA45 1-600); experiment: pull-down; GST-INTS13 C-terminal constructs from E. coli lysates with insect cell extracts expressing cleavage module subunits, on glutathione sepharose; 50 mM HEPES pH 7.5, 200 mM NaCl, 2 mM DTT; Coomassie gel and Western blots; details: partners not purified
T3 construct: INTS4, human; INTS9, human; INTS11, human; The tags are named in the methods of the copurification assays; also called INTS4–INTS9–INTS11; INTS4–9–11; source: insect cells (HighFive, baculovirus), coexpressed; in cell extract and purified (StrepTrap, heparin, Superose 6); not shown: His10, N-terminal, kept; tandem Strep tag (2S), N-terminal, kept; copies: + +
T3 sequence (Q96HW7 whole entry, chain 1 of 3): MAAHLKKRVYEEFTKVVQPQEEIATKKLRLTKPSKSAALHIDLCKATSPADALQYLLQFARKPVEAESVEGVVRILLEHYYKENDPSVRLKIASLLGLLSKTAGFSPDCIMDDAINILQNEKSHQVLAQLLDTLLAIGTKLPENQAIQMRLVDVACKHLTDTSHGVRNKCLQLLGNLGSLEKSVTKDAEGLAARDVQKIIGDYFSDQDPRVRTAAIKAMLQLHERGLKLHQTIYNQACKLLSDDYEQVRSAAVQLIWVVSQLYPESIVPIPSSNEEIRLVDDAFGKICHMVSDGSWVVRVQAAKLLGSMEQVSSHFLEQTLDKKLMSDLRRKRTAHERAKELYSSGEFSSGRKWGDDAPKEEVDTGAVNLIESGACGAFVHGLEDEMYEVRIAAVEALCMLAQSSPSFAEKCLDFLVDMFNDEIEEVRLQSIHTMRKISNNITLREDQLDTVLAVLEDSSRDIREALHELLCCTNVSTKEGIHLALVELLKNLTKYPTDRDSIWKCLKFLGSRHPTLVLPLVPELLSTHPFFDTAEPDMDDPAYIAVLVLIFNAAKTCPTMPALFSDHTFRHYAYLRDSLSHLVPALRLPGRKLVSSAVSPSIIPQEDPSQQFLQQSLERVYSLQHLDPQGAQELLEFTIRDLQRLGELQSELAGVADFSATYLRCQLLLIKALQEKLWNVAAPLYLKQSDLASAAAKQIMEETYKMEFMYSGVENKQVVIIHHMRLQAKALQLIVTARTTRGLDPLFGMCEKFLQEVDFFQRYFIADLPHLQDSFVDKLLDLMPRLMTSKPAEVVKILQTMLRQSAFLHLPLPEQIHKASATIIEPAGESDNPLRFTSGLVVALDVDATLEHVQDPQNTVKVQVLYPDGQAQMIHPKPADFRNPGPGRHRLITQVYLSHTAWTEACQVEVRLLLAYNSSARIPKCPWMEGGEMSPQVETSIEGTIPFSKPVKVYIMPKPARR
T3 sequence (Q9NV88 whole entry, chain 2 of 3): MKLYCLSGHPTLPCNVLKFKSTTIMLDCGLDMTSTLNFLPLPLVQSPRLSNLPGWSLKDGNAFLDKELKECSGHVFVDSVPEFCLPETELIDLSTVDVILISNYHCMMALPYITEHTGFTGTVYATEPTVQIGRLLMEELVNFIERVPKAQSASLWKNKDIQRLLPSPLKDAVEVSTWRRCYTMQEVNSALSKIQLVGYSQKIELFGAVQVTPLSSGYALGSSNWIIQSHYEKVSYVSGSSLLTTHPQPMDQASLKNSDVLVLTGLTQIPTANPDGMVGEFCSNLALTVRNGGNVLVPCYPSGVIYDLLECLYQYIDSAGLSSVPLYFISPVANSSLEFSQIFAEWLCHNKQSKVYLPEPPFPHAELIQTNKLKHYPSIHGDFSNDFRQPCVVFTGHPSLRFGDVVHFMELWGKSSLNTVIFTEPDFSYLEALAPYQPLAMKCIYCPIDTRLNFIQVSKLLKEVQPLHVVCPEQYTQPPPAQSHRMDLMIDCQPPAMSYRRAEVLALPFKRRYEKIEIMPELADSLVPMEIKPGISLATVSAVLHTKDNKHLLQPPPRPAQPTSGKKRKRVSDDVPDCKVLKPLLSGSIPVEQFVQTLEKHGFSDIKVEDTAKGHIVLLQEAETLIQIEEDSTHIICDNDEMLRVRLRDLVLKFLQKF
T3 sequence (Q5TA45 whole entry, chain 3 of 3): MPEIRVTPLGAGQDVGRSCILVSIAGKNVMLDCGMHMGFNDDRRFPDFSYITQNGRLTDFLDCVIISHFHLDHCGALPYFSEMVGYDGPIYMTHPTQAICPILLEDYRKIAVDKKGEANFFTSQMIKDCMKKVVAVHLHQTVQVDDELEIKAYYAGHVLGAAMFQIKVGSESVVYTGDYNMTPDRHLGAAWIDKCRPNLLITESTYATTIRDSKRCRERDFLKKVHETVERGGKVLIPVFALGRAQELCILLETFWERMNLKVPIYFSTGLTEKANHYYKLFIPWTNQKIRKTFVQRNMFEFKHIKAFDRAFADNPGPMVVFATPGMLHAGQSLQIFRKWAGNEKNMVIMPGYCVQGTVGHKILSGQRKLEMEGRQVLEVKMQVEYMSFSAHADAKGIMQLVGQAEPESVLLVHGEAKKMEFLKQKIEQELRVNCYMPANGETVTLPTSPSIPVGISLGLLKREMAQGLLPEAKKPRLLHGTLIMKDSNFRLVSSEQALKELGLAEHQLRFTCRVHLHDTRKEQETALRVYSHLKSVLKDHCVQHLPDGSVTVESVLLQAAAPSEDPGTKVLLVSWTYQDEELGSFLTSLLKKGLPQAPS

T2 sequence (Q9NVR2 whole entry, chain 1 of 3): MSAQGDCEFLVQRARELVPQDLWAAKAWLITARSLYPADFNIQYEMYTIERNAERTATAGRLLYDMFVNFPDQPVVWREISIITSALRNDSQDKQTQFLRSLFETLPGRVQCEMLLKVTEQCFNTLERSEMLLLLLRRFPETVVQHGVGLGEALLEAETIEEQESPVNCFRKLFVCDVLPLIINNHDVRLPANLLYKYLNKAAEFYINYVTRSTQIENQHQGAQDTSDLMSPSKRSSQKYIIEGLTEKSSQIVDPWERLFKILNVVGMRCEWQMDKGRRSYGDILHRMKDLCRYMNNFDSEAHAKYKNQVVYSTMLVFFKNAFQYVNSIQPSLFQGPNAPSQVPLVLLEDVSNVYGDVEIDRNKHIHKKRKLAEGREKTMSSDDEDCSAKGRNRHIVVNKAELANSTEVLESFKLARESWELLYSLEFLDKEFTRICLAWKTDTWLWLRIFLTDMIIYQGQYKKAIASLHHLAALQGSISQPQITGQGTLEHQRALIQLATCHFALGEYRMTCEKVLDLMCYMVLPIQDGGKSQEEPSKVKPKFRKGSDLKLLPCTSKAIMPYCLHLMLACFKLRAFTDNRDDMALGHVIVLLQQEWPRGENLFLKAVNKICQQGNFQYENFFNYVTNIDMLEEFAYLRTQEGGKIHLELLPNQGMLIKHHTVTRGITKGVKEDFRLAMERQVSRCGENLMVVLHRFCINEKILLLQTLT
T2 sequence (Q9NVM9 whole entry, chain 2 of 3): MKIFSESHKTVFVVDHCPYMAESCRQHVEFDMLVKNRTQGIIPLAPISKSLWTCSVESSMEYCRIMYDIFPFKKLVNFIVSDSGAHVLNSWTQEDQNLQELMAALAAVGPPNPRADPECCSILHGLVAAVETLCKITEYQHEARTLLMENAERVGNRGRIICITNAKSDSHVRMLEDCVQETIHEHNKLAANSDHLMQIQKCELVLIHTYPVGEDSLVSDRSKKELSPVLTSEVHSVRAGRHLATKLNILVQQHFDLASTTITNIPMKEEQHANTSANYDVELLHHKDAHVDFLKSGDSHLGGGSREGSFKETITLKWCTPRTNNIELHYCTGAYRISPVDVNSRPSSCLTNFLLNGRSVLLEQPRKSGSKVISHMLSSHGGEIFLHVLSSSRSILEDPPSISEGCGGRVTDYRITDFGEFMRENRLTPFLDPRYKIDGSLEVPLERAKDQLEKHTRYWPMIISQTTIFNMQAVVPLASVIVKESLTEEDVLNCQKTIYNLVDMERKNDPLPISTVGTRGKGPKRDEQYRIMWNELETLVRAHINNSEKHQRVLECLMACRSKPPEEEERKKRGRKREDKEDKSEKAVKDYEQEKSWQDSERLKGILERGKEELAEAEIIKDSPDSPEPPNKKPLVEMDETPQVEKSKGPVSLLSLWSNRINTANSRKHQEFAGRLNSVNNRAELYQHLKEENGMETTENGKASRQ
T2 sequence (Q96SY0 whole entry, chain 3 of 3): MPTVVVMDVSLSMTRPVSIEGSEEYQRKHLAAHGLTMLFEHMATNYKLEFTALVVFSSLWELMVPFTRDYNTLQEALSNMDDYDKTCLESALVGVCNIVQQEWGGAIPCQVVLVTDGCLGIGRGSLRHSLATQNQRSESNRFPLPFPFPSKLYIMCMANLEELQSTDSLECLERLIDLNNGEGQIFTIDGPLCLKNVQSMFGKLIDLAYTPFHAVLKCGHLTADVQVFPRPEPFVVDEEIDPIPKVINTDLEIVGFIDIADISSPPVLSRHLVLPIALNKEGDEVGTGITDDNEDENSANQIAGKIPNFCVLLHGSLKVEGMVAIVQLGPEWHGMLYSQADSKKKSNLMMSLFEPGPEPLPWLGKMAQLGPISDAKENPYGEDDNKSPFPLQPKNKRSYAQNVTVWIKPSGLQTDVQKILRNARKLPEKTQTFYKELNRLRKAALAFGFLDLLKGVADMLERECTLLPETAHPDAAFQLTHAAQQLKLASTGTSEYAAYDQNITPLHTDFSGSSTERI
T1 sequence (Q9NVM9 whole entry, chain 1 of 2): as the sequence (Q9NVM9 whole entry, chain 2 of 3) above
T1 sequence (Q96SY0 whole entry, chain 2 of 2): as the sequence (Q96SY0 whole entry, chain 3 of 3) above

Binder: GGGUGGGGGACUGCGUUCGCGCUUUCCCCUGGCCGG (structured_RNA) [U1 SL4]
binding result [1]: binds | apparent K (half saturation) [2]: ~1000 nM

Binder: UUUUUUUUUUUU (ssRNA) [U12 RNA]
Kd [3]: 570 ± 50 nM | Kd [4]: 420 ± 20 nM

binding result [5]: binds
B1: GST-INTS13 cleavage module-binding motif (CMBM, residues 649–694) (domain or fragment, human, UniProt Q9NVM9 649-694, looked up)
chain: GPVSLLSLWSNRINTANSRKHQEFAGRLNSVNNRAELYQHLKEENG
notes: INTS13, human, conserved C-terminal helices, residues 649–694; also called GST-CMBM; INTS13 CMBM; source: E. coli BL21 Star (DE3), in lysate; not shown: GST, N-terminal, kept
